To fix the notation:
B1: HDV Ribozyme (parent)
chain: GGCCGGCAUGGUCCCAGCCUCCUCGCUGGCGCCGGCUGGGCAACAUUCCGAGGGGACCGUCCCCUCGGUAAUGGCGAAUGGGACCCA

In the data set the parent is B1. In words: self-cleavage, relative activity (ratio to wild type); higher = more cleavage; co-transcriptional.
C19A G29U: the self-cleavage came out at 0.0733. In the case of C41A U69C, the self-cleavage stood at 0.898. The figure for G17U G82C is 0.269; for G53A A56G it is 0.875; for C58A it is 1.02. Next, A43U A56G: 0.665.

As for C13U G39U, the self-cleavage was 0.495.

As to G17C G35A, the self-cleavage is 0.147. Next, U20C C61U: 0.0723. Next, C57A U79A: 0.806. The figure for C4A A71U is 0.259; for G10U U20C it is 0. Take C44A G50C: the self-cleavage is 0.702. Regarding G55C U60G, the self-cleavage came out at 0.898.

Consider A16G A87G, for which the self-cleavage is 0.892.

On to U12G A83U, for which the self-cleavage was 0.867. The figure for G11A C62G is 0.437. G6A G80C: the self-cleavage amounted to 0.0941. The figure for G34C U47A is 0.161.

Consider U9A C86G, for which the self-cleavage turned out to be 1.04. The figure for C58G G80C is 0.147. The figure for C33G C86U is 0.214; for G39A C84G it is 0.0852; for A16G C32A it is 0.107. The figure for A16G C32G is 0.145; for G35C C62U it is 0.0665. As to A45U G80C, the self-cleavage was 0. The figure for G67A G81A is 0.302. Next, C3G G10U: 0.193. The figure for A42G A78C is 0.107; for G6A C7A it is 0.185. G17U C41U: the self-cleavage was determined as 0.253.

With C21G C86U, the self-cleavage turned out to be 0.0791. The figure for C3U U20C is 0.113; for G25U C62U it is 0.0615; for C19U A78U it is 0.111. Next, A16G G25A: 0.192; C19G G28U: 0.208. The figure for U12A A70C is 0.332; for G5U A77C it is 0.192; for G31U A87U it is 0.521. Regarding C24G G54C, the self-cleavage was found to be 0.0511.

Take G2A G67C: the self-cleavage stood at 0.0536. The figure for C13A G31A is 0.0594. Turning to G38A C84G, the self-cleavage turned out to be 0.257. Next, A8G G59U: 0.914; C13U U69C: 0.88; U27C A43G: 0.383. Next, C19A G40A: 0.109.

Take U27A U46A: the self-cleavage is 0.831. The figure for C4A A77U is 0; for C3U A16U it is 0.831; for C26U A70U it is 1.01. The figure for G40A C41U is 0.87; for C19A C48G it is 0.22.

Consider C32A C64U, for which the self-cleavage worked out at 0.175. The figure for C15U G53A is 0.912; for C13G G52C it is 0.0475; for C22G C86U it is 0.0923. Next, C63U A70G: 1.02; U65G U79C: 0.19; C24A U79A: 0.227.

As for C58U A71C, the self-cleavage was 0.85.

For C3U C66A, the self-cleavage turned out to be 0.69. The figure for C18U U46A is 0.291; for C13A C58G it is 0.0639. Next, A56G C57G: 0.8; G6C U9A: 0.256; G50C G80A: 0.523.

For the variant C41U U47C, the self-cleavage is 0.799. Take C7A C24G: the self-cleavage stood at 0.0415. Next, C26A G68U: 0.929; C4A U69A: 0.185; C33U A77C: 0.298. In the case of U72A C86G, the self-cleavage is 0.674. Next, C14A G39C: 0.0615.

With G5A A56U, the self-cleavage amounted to 0.106. The figure for G6C G17C is 0. The figure for U37C A43U is 0.172. Next, G11U C48A: 0.423; G54U: 0.98. G54C: the self-cleavage was determined as 0.98. Next, A51U G55C: 1.01; G11U G34A: 0.21.

As to G25A U27A, the self-cleavage was 0.161. Next, G10U G52C: 0.639; G2C C86G: 0.0252; G2U G59C: 0.0323. Next, C32U G40C: 0.104. Consider G53A G59A, for which the self-cleavage came out at 0.851. The figure for C14U U72A is 0.745. The figure for C32U U47G is 1.03; for G28C C44A it is 0.0475. Next, C18G U46C: 0. Consider U9C G52A, for which the self-cleavage is 1.04. G6A C86G: the self-cleavage was determined as 0.802.

As to C26G G34C, the self-cleavage came out at 0.

Consider U27A U47A, for which the self-cleavage was 0.7. Next, C66U A87C: 0.875; C14A C86U: 0.9; U12G C85G: 0.369.

Take C32G C48G: the self-cleavage was 0.0437. With C33A A87G, the self-cleavage turned out to be 0.14.

Turning to G5U C7U, the self-cleavage was determined as 0. For the variant C4A C85G, the self-cleavage amounted to 0.393. Next, G35C U46G: 0.0831; G5U C36A: 0.208; C7U G35C: 0. Next, G1C G39U: 0.116. Next, G73U U79A: 0.131; C14G C44A: 0.128; C19U G59U: 0.194.

Consider G81U A83G, for which the self-cleavage was found to be 0.152. Next, G28C: 0.0814; G10C G25U: 0.0941; G17U U23G: 0.0692.

For G73C G80A, the self-cleavage is 0.284. Consider U60C C75U, for which the self-cleavage came out at 0.203. With G31U C61G, the self-cleavage is 0.332. The figure for G5U U72A is 0.128. The figure for C44U C84A is 0.614; for C18G U60C it is 0.0692. C7A U12G: the self-cleavage amounted to 0.237. Next, G17C C22U: 0.0639; G73A G82C: 0.172; U20C C21A: 0.0475.

For the variant G39A G59C, the self-cleavage turned out to be 0.546. Consider A16C C58A, for which the self-cleavage stood at 0.582. Next, U72C A87C: 0.597; C61G G81C: 0.262.

In the case of C30G C85U, the self-cleavage was found to be 0.0302. On to C18U U69A, for which the self-cleavage worked out at 0.397. In the case of U69G A70C, the self-cleavage stood at 1.15. The figure for G28A A83G is 0.0946; for A71C U72C it is 0.185; for C14U G31A it is 0.475. The figure for G11C C26A is 0.462. The figure for A51C A78U is 0.133; for C19A C22G it is 0.155; for U9G G29A it is 0.123. Consider C57U G73C, for which the self-cleavage was 0.748. Turning to C18U G28C, the self-cleavage turned out to be 0.089. The figure for C21U G80U is 0.0919.

For C7U A56C, the self-cleavage is 0.806. Next, U27A U72C: 0.277.

In the case of G40A G82U, the self-cleavage stood at 0.198. Next, G40C C61U: 0.192; G17U C26U: 0.654; A8G G39C: 0.142. Next, C19G C85G: 0.111.

With C41G C86U, the self-cleavage amounted to 0.657. For the variant G31U C41A, the self-cleavage amounted to 0.136.

Take C36U C44G: the self-cleavage came to 0.231.

Regarding C58G C84G, the self-cleavage came out at 0.554. The figure for U27G G74A is 0.229; for U47G C75A it is 0.107; for C7A C32A it is 0.332.

On to A16U C63U, for which the self-cleavage stood at 1.14.

For the variant U12G C75A, the self-cleavage was 0.

Take U27C G54U: the self-cleavage is 0.845.

As to C19U U20A, the self-cleavage stood at 0.149. Next, C18U G74C: 0.0519; U12C A71G: 0.287; A77C G81C: 0.0504.

C21A C49A: the self-cleavage was found to be 0.157. Next, G52U C86G: 1.01; A51G G82U: 0.203.

The values are drawn from the RNAGym collection of RNA variant scans (doi:10.7554/elife.80360).
